Values quoted from earlier work as cited in PMC5615855.
pKd: −log10 of the molar value.

Molecular target: N2B (HEB) N2B (Homo sapiens) (UniProt Q99081)

pKd: 3.45
Substance: NHR2 (AML1-ETO) NHR2 (from UniProt Q06455)
